The values below come from patent US20090208522A1.

Several values for one entry are separate records, joined by “and”; a condition that tells them apart may be missing. Identical values can stand only once. Bounds are passed on as bounds.

In test [1] the target is GDF8 protein (R&D Systems Inc.) (UniProt O14793). As to the kind of experiment: cell-based or functional assay.
For test [2], the target named is DJ6 peptide (GDF8 active region peptide 342-361) (human). Nature of the test: ELISA, peptide coated 500 ng/well, antibody diluted 1:20. Background: In an ELISA, binding on a coated surface is turned into a signal by an enzyme label.
The target in test [3] is DJ1 peptide (GDF8 active region peptide 267-286) (human). The test is described as above.
Test [4] concerns the target DJ3 peptide (GDF8 active region peptide 297-316) (human). Described as above.
For test [5], the target named is DJ7 peptide (GDF8 active region peptide 357-375) (human). The test is described as above.
Test [6] addresses DJ2 peptide (GDF8 active region peptide 282-301) (human). Described as above.
Test [7] concerns the target DJ5 peptide (GDF8 active region peptide 327-346) (human). The test is described as above.
Test [8] has as its target DJ4 peptide (GDF8 active region peptide 312-331) (human). The test is described as above.
Test [9] concerns the target TMV-FV7 (DJ5(12)-U1-GPAT coat protein fusion, from pLSB-FV7). Nature of the test: indirect ELISA, endpoint dilution.
The target in test [10] is Purified CHO-derived FLAG-tagged human GDF8 prohormone (precursor GDF8) (human) (UniProt O14793). As to the kind of experiment: ELISA, prohormone coated 250 ng/well, antibody diluted 1:80.
Test [11] addresses DJ6 peptide (GDF8 active region peptide 342-361) (human). Nature of the test: ELISA, peptide coated 500 ng/well, antibody diluted 1:40.
In test [12] the target is DJ1 peptide (GDF8 active region peptide 267-286) (human). The description is as above.
The target of test [13] is DJ3 peptide (GDF8 active region peptide 297-316) (human). The description is as above.
For test [14], the target named is DJ7 peptide (GDF8 active region peptide 357-375) (human). Described as above.
The target of test [15] is DJ2 peptide (GDF8 active region peptide 282-301) (human). Described as above.
Test [16] has as its target DJ5 peptide (GDF8 active region peptide 327-346) (human). The description is as above.
For test [17], the target named is DJ4 peptide (GDF8 active region peptide 312-331) (human). The description is as above.
Test [18] has as its target Purified CHO-derived FLAG-tagged human GDF8 prohormone (precursor GDF8) (human) (UniProt O14793). As to the kind of experiment: indirect ELISA, proGDF8FLAG coated at 5 ug/mL.
In test [19] the target is TMV-FV7 (DJ5(12)-U1-GPAT coat protein fusion, from pLSB-FV7). As to the kind of experiment: DAS ELISA, virion captured by PVAS 135D.
Test [20] concerns the target Purified CHO-derived FLAG-tagged human GDF8 prohormone (precursor GDF8) (human) (UniProt O14793). As to the kind of experiment: ELISA, prohormone coated 250 ng/well, antibody diluted 1:20.
The target is the same in test [21]. Nature of the test: indirect ELISA.
Test [22] deals with TMV-FV7 (DJ5(12)-U1-GPAT coat protein fusion, from pLSB-FV7). Nature of the test: DAS ELISA, PVAS 135D capture.
The target in test [23] is Purified CHO-derived FLAG-tagged human GDF8 prohormone (precursor GDF8) (human) (UniProt O14793). Nature of the test: ELISA, prohormone coated 250 ng/well, antibody diluted 1:40.
Test [24] has the same target. As to the kind of experiment: direct ELISA, response per pmole.
For test [25], the target named is TMV U1 coat protein / wild-type TMV U1 virus (tobacco mosaic virus, strain U1) (UniProt P69687). As to the kind of experiment: indirect ELISA, antigen coated at 5 ug/mL.
The target of test [26] is TMV-FV7 (DJ5(12)-U1-GPAT coat protein fusion, from pLSB-FV7). Nature of the test: indirect ELISA, antigen coated at 5 ug/mL.
Test [27] addresses TMV U5 coat protein / TMV U5 virus (tobacco mild green mosaic virus (TMV U5)). As to the kind of experiment: indirect ELISA, antigen coated at 5 ug/mL.
In test [28] the target is DJ6 peptide (GDF8 active region peptide 342-361) (human). As to the kind of experiment: ELISA, peptide coated 500 ng/well, antibody diluted 1:80.
Test [29] deals with DJ1 peptide (GDF8 active region peptide 267-286) (human). Described as above.
Test [30] has as its target DJ3 peptide (GDF8 active region peptide 297-316) (human). Described as above.
Test [31] deals with DJ7 peptide (GDF8 active region peptide 357-375) (human). The description is as above.
Test [32] addresses DJ2 peptide (GDF8 active region peptide 282-301) (human). Described as above.
Test [33] addresses DJ5 peptide (GDF8 active region peptide 327-346) (human). Described as above.
Test [34] has as its target DJ4 peptide (GDF8 active region peptide 312-331) (human). Described as above.
For test [35], the target named is TMV U1 coat protein / wild-type TMV U1 virus (tobacco mosaic virus, strain U1) (UniProt P69687). Nature of the test: DAS ELISA, virion captured by PVAS-135D.
Test [36] has as its target TMV-FV7 (DJ5(12)-U1-GPAT coat protein fusion, from pLSB-FV7). As to the kind of experiment: DAS ELISA, virion captured by PVAS-135D.
Test [37] has as its target DJ5 (20) peptide conjugated to BSA (human). Nature of the test: indirect ELISA, conjugate coated at 5 ug/mL.

With “Normal goat IgG (purified from non-immunized goat sera, commercially purchased) (antibody)”, in [1], the % Inhibition of GDF8 Activity (in vitro transcriptional activation assay), 250 ug IgG was determined as 7% and the % Inhibition of GDF8 Activity (in vitro transcriptional activation assay, A204 cells, luciferase reporter), 250 ug IgG was 0%.

For the substance “Rat monoclonal antibody MAB788 (R&D Systems, anti-mouse GDF8)”, the ELISA reactivity (OD 405/minute x 1000) (OD405/min x 1000) turned out to be 0 in [2]; 4 in test [3]; 0 in test [4]; 0 in test [5]; 0 in [6]; 133 in test [7]. Moreover, the ELISA reactivity (OD 405/minute x 1000) (OD405/min x 1000) in test [8] was found to be 0; in test [10] it was 132; in test [11], 0; in test [12], 0; in test [13], 0; in [14] it was 0. Moreover, the ELISA reactivity (OD 405/minute x 1000) (OD405/min x 1000) in [15] amounted to 0; in [16] it was 118; in test [17], 0; in test [20], 132; in [23], 127; in [28] it was 0. Moreover, the ELISA reactivity (OD 405/minute x 1000) (OD405/min x 1000) was 0 in test [29]; 0 in [30]; 0 in test [31]; 0 in test [32]; 102 in test [33]; 0 in test [34]. Also, the fold higher response than against the U1 coat protein in test [9] was 3 fold. Besides, the endpoint dilution (reciprocal dilution) in test [18] was 21900; in test [19] it was 7290; in test [25] it was 1620; in test [26], 4860; in test [27], less than 20; in test [35], 180. Further, the figures for the endpoint dilution (reciprocal dilution) in test [36] and in test [37] were 14600 and 270, respectively. The substance further displayed an endpoint dilution higher than for DJ5(20) BSA (log10) in test [21] of 2. Moreover, the % Inhibition of GDF8 Activity (in vitro transcriptional activation assay), 0.1 ug IgG in test [1] came out at 0%. The % Inhibition of GDF8 Activity (in vitro transcriptional activation assay), 1.8 ug IgG in test [1] came out at 0%. For the same substance, the % Inhibition of GDF8 Activity (in vitro transcriptional activation assay), 3.1 ug IgG in test [1] was found to be 7%. Moreover, the % Inhibition of GDF8 Activity (in vitro transcriptional activation assay), 6.3 ug IgG in test [1] is 17%. The % Inhibition of GDF8 Activity (in vitro transcriptional activation assay), 12.5 ug IgG in test [1] worked out at 47%. In [22], this substance had a fold lower endpoint dilution than for the GDF8 prohormone of 3 fold. Besides, the fold higher response than to TMV-FV6 and TMV-FV7 in test [24] was 2 fold and 3 fold.
